The values that follow come from PMC10810282.

For test [1], the target named is separate RPA2 WH-domain (pTYB12-WH), recombinant. The experiment in a line: MST; 100 nM target labelled on cysteines (RED-…), concentration gradient of unlabelled ligand; Monolith NT.115, premium coated capillaries, 40% MST power; 50 mM Tris-HCl pH 7.5, 100 mM NaCl, 1 mM DTT, 0.05% Tween-20, 0.5 mg/ml BSA; KD from at least three runs.
The target of test [2] is mouse UNG2 wild type, recombinant (mUNG2-pET28a) (mouse) (UniProt P97931). The description is as above.

As usually defined, the Kd is the concentration at which binding is half-saturated. Turning to “mouse UNG2 wild type, recombinant (mUNG2-pET28a) (from UniProt P97931-1 1-306) (domain or fragment)”, the Kd in test [1] came out at 860 nM.
Turning to “separate RPA2 WH-domain (pTYB12-WH), recombinant”, in test [2], the Kd was 1260 nM.
